Among the data in paper PMC10308904, “The Cytomegalovirus M35 Protein Directly Binds to the Interferon-β Enhancer and Modulates Transcription of Ifnb1 and Other IRF3-Driven Genes” are stoichiometry N, binding result and Kd values, retold here.

For series [1], the target named is NStr-M35_S, short M35 (aa 2 to 452) with N-terminal Twin-Strep tag and TEV site (murine cytomegalovirus (MCMV)). Description: SEC-MALS; 100 μg protein on Superdex 200 Increase 10/300 in 50 mM Tris pH 7.4, 10% glycerol, 250 mM NaCl, 1 mM DTT. In general terms: In gel filtration, larger molecules generally elute earlier.
Series [2] concerns the target T1, M35_S (murine cytomegalovirus (MCMV) strain …, UniProt D3XDM4 2-452).
T1 sequence: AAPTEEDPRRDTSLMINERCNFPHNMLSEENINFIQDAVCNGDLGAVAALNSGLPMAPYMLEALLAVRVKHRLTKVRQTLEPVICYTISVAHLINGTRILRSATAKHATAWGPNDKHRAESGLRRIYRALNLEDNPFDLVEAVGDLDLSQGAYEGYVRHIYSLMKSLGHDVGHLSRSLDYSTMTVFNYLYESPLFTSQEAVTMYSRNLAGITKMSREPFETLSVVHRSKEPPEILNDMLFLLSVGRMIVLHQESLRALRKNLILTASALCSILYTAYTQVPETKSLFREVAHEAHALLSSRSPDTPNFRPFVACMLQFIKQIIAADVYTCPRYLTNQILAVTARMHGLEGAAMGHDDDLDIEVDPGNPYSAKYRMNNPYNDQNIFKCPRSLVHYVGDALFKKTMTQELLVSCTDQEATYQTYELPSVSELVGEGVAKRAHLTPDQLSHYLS
Description: EMSA; 1 uM M35_S. Conditions: protein: recombinant; tags: N-terminal Twin-Strep tag removed by TEV (GS remnant likely); chain copies: 2; label: 5'-biotin on both strands; 5' overhang 1 nt each end, 56 bp. (A gel shift assay detects complexes by their altered migration in electrophoresis.)

For series [3], the target named is T1, M35_S. The experiment in a line: EMSA. To be noted: protein: recombinant; tags: N-terminal Twin-Strep tag removed by TEV (GS remnant likely); chain copies: 2; label: 5'-biotin on both strands; 5' overhang 1 nt each end, 56 bp.
For series [4], the target named is T1, M35_S. Description: EMSA; Hill coefficient 2.775. Conditions: protein: recombinant; tags: N-terminal Twin-Strep tag removed by TEV (GS remnant likely); chain copies: 2; label: 5'-biotin on both strands; 5' overhang 1 nt each end, 56 bp.
Series [5] addresses T1, M35_S. The experiment in a line: EMSA; 0.1-10 uM M35_S; second complex at 10 uM. Conditions: protein: recombinant; tags: N-terminal Twin-Strep tag removed by TEV (GS remnant likely); chain copies: 2; label: 5'-biotin on both strands; 5' overhang 1 nt each end, 56 bp.

The term stoichiometry N denotes a count of units in the complex or per binding partner. With “NStr-M35_S, short M35 (aa 2 to 452) with N-terminal Twin-Strep tag and TEV site (domain or fragment)”, the stoichiometry N in series [1] amounted to 2.

B1: Bio-hIFNb 1-38 (dsDNA)
DNA 1: TAAATGACATAGGAAAACTGAAAGGGAGAAGTGAAAGTGACATGCTACGGAATGAAT
DNA 2: AATTCATTCCGTAGCATGTCACTTTCACTTCTCCCTTTCAGTTTTCCTATGTCATTT
In the case of B1, in series [2], the binding result is given as “binds”.

B2: Bio-scrambled (ScrHIFNb) (dsDNA)
DNA 1: ATAAGAGAACTAAGCGGAATAAGTAAGAGATGATCGGATTAGTCGCTAAGAATGAGA
DNA 2: TTCTCATTCTTAGCGACTAATCCGATCATCTCTTACTTATTCCGCTTAGTTCTCTTA
Take B2: the binding result in series [3] is on record as “no binding”.

B3: Bio-mIFNb (murine IFN-b enhancer) (dsDNA)
DNA 1: AAAATGACAGAGGAAAACTGAAAGGGAGAACTGAAAGTGGGAAATTCCTCTGAGGCA
DNA 2: CTGCCTCAGAGGAATTTCCCACTTTCAGTTCTCCCTTTCAGTTTTCCTCTGTCATTT
A word on the Kd: it is a measure of binding affinity in units of concentration. With B3, the dissociation constant Kd in series [4] stood at 2060 nM.

B4: Bio-hIFNb (human IFN-b enhancer) (dsDNA)
DNA 1: TAAATGACATAGGAAAACTGAAAGGGAGAAGTGAAAGTGGGAAATTCCTCTGAATAG
DNA 2: ACTATTCAGAGGAATTTCCCACTTTCACTTCTCCCTTTCAGTTTTCCTATGTCATTT
Regarding B4, the binding result in series [5] is on record as “binds”.

B5: Bio-hIFNb 15-38 (dsDNA)
DNA 1: ATATAAGACGGAATAAACTGAAAGGGAGAAGTGAAAGTGACATGCTACGGAATGAAT
DNA 2: AATTCATTCCGTAGCATGTCACTTTCACTTCTCCCTTTCAGTTTATTCCGTCTTATA
B5: in series [2], the binding result is recorded as “binds”.
